Substrate: O=C(CO)[C@H](O)[C@H](O)COP(=O)(O)O
Assay: purified protein, by the assay type
Design: Recombinant RPIB isomerase kinetics, R5P to Ru5P (direct) or Ru5P to R5P (reverse)
From the text: LiRPIB and LmRPIB recombinant proteins, containing a 6-histidine N-terminal tag, were expressed in Escherichia coli and purified by affinity chromatography under native conditions. Coomassie blue is represented in Fig. 1b, showing that both proteins have the predicted MW for the monomer (LiRPIB ~20.83, LmRPIB ~20.78 kDa). […] Additionally, recombinant LiRPIB was used to immunise rabbits to produce polyclonal anti-LiRPIB antibodies. Those antibodies recognise the recombinant protein and a single band in an extract of L. infantum promastigotes with the expected MW (~18.6 kDa, [web.expasy.org/protparam]) (Fig. 1c). […] The reverse reaction, which generates R5P, seems to be favoured, with both enzymes presenting lower Km values and higher vmax and kcat.

| Protein | Km [µM] | Vmax [µM/min] | kcat [s⁻¹] |
| --- | --- | --- | --- |
| LmRPIB (Leishmania major) (protein) MSKRVALGCDHAAYAAHREIMDMISASGAVSKVMYMGPSSDTSVDYPDYAAQVCEAILKGEADAGILVCGTGIGMSIAANKFRGIRAALCYDHVTAQLSRQHNNAHILCIGVRTSGMEIIRDIITTFLTTEPLAEGRHSNRVDKITVIEEEQMKDEQRCCFSGCGGRKEEGK | 3010 ± 540 | 1040 | 128 ± 7.33 |
| LiRPIB (Leishmania infantum) (protein) MPKRVALGCDHAAYATHQEIMDMVNASGAASKVMYMGPSSDTSVDYPDYAAQVCEAILKGEADTGILVCGTGIGMSIAANKFRGIRAALCYDHVTAQLSRQHNNAHILCIGVRTSGMEVIRDIIETFLTTEPLAEGRHGNRVDKITVIEEEQMKDEQRWCFSGCGGLKEEGK | 2820 ± 300 | 930 | 115 ± 3.86 |
